Like-named read-outs stand apart in the source and are kept apart here.

Experiment [1] deals with 31 kDa recombinant Tic40s form (Brassica napus). The experiment in a line: dynamic light scattering.
For experiment [2] the target is unchanged. The experiment in a line: dynamic light scattering. The source holds these as a separate data set.
The target of experiment [3] is Recombinant Tic40s with a carboxyl-terminal histidine tag (40 kDa form) (Brassica napus). Nature of the experiment: AUC.
Experiment [4] shares this target. Nature of the experiment: AUC. The source holds these as a separate data set.

Consider “31 kDa recombinant Tic40s form (domain or fragment)”, for which the stoichiometry N (usually a count of units in the complex or per binding partner) in experiment [1] came out at 2; in experiment [2] it was 4.
On to “Recombinant Tic40s with a carboxyl-terminal histidine tag (40 kDa form) (domain or fragment)”, for which the stoichiometry N in experiment [3] came out at 3; in experiment [4], 4.

The record behind these values is paper doi:10.1101/2021.06.07.447357.
